# In patent US20240190947A1 (BIO TECHNE, published 2024):
# B1: 70009-2 VHH clone (VHH)
# VHH: QLQLVESGGGLVQPGGSLRLSCAASTLTLNSYAIGWFRQAPGKEREAVSCTSSSGDMTYYTNSVKGRFTISRDNAKNTVYLQMSRLKPDDTAVYYCAAVLLEYGYVCSHPNEYDYWGQGTQVTVSS
# Biological target: T1, SARS-CoV-2 S1 RBD His-tagged protein (SARS-CoV-2, UniProt P0DTC2 319-541)
# T1 construct: domain: S1 RBD; also called rSARS-CoV-2 S1 RBD; SARS-CoV2 RBD
# Assay: direct ELISA, HEK293 transfection medium
binder,measurement,value
B1,binding result,binds
